Here are results for seven molecules from PMC10299155, “Single-Molecule Analysis of the Improved Variants of the G-Quadruplex Recognition Protein G4P”.

Data set [1] deals with T1, G4P (artificial (RSM derived from human RHAU/DHX36)).
T1 sequence: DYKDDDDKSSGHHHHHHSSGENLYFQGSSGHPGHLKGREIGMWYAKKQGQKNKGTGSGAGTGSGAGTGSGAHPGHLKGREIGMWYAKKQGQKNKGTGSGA
The data set is described as follows: smTIRFM (koff/kon). Particulars: EMSA: DNA annealed in 200 mM Tris pH 7.4, 100 mM KCl, 1 mM EDTA; binding 10 min at 25 C, native PAGE; smTIRFM: 100 pM tethered DNA, 100-5000 pM protein, buffer ….

Data set [2] relates to T2, FJG4P (artificial (motif derived from human FANCJ)).
T2 sequence: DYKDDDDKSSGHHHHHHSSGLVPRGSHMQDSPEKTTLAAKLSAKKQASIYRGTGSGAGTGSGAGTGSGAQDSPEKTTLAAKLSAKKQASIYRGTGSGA
The data set can be described thus: smTIRFM (koff/kon). Particulars: EMSA: DNA annealed in 200 mM Tris pH 7.4, 100 mM KCl, 1 mM EDTA; binding 10 min at 25 C, native PAGE; smTIRFM: 100 pM tethered DNA, 100-5000 pM protein, buffer ….

In data set [3] the test system is T3, 2FJG4P (artificial (motif derived from human FANCJ)).
T3 sequence: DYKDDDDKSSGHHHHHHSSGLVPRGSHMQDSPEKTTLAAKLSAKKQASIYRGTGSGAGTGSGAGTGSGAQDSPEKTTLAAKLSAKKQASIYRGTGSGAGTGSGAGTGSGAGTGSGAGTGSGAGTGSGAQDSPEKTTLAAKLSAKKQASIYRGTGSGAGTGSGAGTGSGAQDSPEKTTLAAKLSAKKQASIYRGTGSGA
The data set is described as follows: smTIRFM (koff/kon). Particulars: EMSA: DNA annealed in 200 mM Tris pH 7.4, 100 mM KCl, 1 mM EDTA; binding 10 min at 25 C, native PAGE; smTIRFM: 100 pM tethered DNA, 100-5000 pM protein, buffer ….

For data set [4], the target named is T4, FJG4P (artificial (motif derived from human …)).
T4 chain: T2 sequence
The data set can be described thus: EMSA; no detectable binding; EMSA: DNA annealed in 200 mM Tris pH 7.4, 100 mM KCl, 1 mM EDTA; binding 10 min at 25 C, native PAGE; smTIRFM: 100 pM tethered DNA, 100-5000 pM protein, buffer. Particulars: protein: recombinant; tags: N-terminal FLAG-6xHis; label: 5' fluorescein; intramolecular G4, mixed topology.

Data set [5] addresses T5, 2G4P (artificial (RSM derived from human …)).
T5 chain: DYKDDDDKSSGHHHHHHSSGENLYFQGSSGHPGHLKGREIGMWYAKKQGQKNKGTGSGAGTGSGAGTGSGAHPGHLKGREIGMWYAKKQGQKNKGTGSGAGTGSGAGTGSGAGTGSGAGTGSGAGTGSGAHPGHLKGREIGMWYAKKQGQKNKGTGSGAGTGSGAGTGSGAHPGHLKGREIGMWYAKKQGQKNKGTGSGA
The data set can be described thus: EMSA; EMSA: DNA annealed in 200 mM Tris pH 7.4, 100 mM KCl, 1 mM EDTA; binding 10 min at 25 C, native PAGE; smTIRFM: 100 pM tethered DNA, 100-5000 pM protein, buffer. To be noted: protein: recombinant, tags: N-terminal FLAG-6xHis.

The target of data set [6] is T6, G4P (artificial (RSM derived from human …)).
T6 chain: T1 sequence
Described as above. To be noted: protein: recombinant, tags: N-terminal FLAG-6xHis.

In data set [7] the target is T7, 2FJG4P (artificial (motif derived from human …)).
T7 chain: T3 sequence
The data set can be described thus: mass photometry; higher molecular weight complexes; EMSA: DNA annealed in 200 mM Tris pH 7.4, 100 mM KCl, 1 mM EDTA; binding 10 min at 25 C, native PAGE; smTIRFM: 100 pM tethered DNA, 100-5000 pM protein, buffer. To be noted: protein: recombinant; tags: N-terminal FLAG-6xHis; G4, mixed topology.

Data set [8] concerns the target T6, G4P. The data set can be described thus: smTIRFM (koff/kon); kon 2.16e9 M-1 s-1, koff 0.61 s-1; EMSA: DNA annealed in 200 mM Tris pH 7.4, 100 mM KCl, 1 mM EDTA; binding 10 min at 25 C, native PAGE; smTIRFM: 100 pM tethered DNA, 100-5000 pM protein, buffer. To be noted: protein: recombinant; tags: N-terminal FLAG-6xHis; label: 3' biotin on strand 2; 18 bp duplex with 3' ssDNA tail folded as parallel G4.

Data set [9] concerns the target T4, FJG4P. The data set is described as follows: smTIRFM (koff/kon); kon 3.45e9 M-1 s-1, koff 0.94 s-1; EMSA: DNA annealed in 200 mM Tris pH 7.4, 100 mM KCl, 1 mM EDTA; binding 10 min at 25 C, native PAGE; smTIRFM: 100 pM tethered DNA, 100-5000 pM protein, buffer. To be noted: protein: recombinant; tags: N-terminal FLAG-6xHis; label: 3' biotin on strand 2; 18 bp duplex with 3' ssDNA tail folded as parallel G4.

The target of data set [10] is T7, 2FJG4P. The data set is described as follows: smTIRFM (koff/kon); kon 4.7e9 M-1 s-1, koff 1.0 s-1; EMSA: DNA annealed in 200 mM Tris pH 7.4, 100 mM KCl, 1 mM EDTA; binding 10 min at 25 C, native PAGE; smTIRFM: 100 pM tethered DNA, 100-5000 pM protein, buffer. Particulars: protein: recombinant; tags: N-terminal FLAG-6xHis; label: 3' biotin on strand 2; 18 bp duplex with 3' ssDNA tail folded as parallel G4.

In data set [11] the target is T5, 2G4P. The data set is described as follows: smTIRFM (koff/kon); kon 3.9e9 M-1 s-1, koff 0.62 s-1; EMSA: DNA annealed in 200 mM Tris pH 7.4, 100 mM KCl, 1 mM EDTA; binding 10 min at 25 C, native PAGE; smTIRFM: 100 pM tethered DNA, 100-5000 pM protein, buffer. To be noted: protein: recombinant; tags: N-terminal FLAG-6xHis; label: 3' biotin on strand 2; 18 bp duplex with 3' ssDNA tail folded as parallel G4.

Data set [12] addresses T6, G4P. The data set is described as follows: smTIRFM (koff/kon); kon 0.43e9 M-1 s-1, koff 0.67 s-1; EMSA: DNA annealed in 200 mM Tris pH 7.4, 100 mM KCl, 1 mM EDTA; binding 10 min at 25 C, native PAGE; smTIRFM: 100 pM tethered DNA, 100-5000 pM protein, buffer. Particulars: protein: recombinant; tags: N-terminal FLAG-6xHis; label: 3' biotin on strand 2; 18 bp duplex with 3' ssDNA tail folded as G4, mixed topology.

The target of data set [13] is T4, FJG4P. The data set can be described thus: smTIRFM (koff/kon); kon 0.01e9 M-1 s-1, koff 0.33 s-1; EMSA: DNA annealed in 200 mM Tris pH 7.4, 100 mM KCl, 1 mM EDTA; binding 10 min at 25 C, native PAGE; smTIRFM: 100 pM tethered DNA, 100-5000 pM protein, buffer. To be noted: protein: recombinant; tags: N-terminal FLAG-6xHis; label: 3' biotin on strand 2; 18 bp duplex with 3' ssDNA tail folded as G4, mixed topology.

Data set [14] addresses T7, 2FJG4P. The data set is described as follows: smTIRFM (koff/kon); kon 0.0339e9 M-1 s-1, koff 0.4 s-1; EMSA: DNA annealed in 200 mM Tris pH 7.4, 100 mM KCl, 1 mM EDTA; binding 10 min at 25 C, native PAGE; smTIRFM: 100 pM tethered DNA, 100-5000 pM protein, buffer. Particulars: protein: recombinant; tags: N-terminal FLAG-6xHis; label: 3' biotin on strand 2; 18 bp duplex with 3' ssDNA tail folded as G4, mixed topology.

The target in data set [15] is T5, 2G4P. The data set can be described thus: smTIRFM (koff/kon); kon 0.0845e9 M-1 s-1, koff 0.29 s-1; EMSA: DNA annealed in 200 mM Tris pH 7.4, 100 mM KCl, 1 mM EDTA; binding 10 min at 25 C, native PAGE; smTIRFM: 100 pM tethered DNA, 100-5000 pM protein, buffer. Particulars: protein: recombinant; tags: N-terminal FLAG-6xHis; label: 3' biotin on strand 2; 18 bp duplex with 3' ssDNA tail folded as G4, mixed topology.

In data set [16] the target is T7, 2FJG4P. The data set is described as follows: mass photometry; largest network size; EMSA: DNA annealed in 200 mM Tris pH 7.4, 100 mM KCl, 1 mM EDTA; binding 10 min at 25 C, native PAGE; smTIRFM: 100 pM tethered DNA, 100-5000 pM protein, buffer. To be noted: protein: recombinant; tags: N-terminal FLAG-6xHis; two G4s, mixed topology.
The target in data set [17] is T5, 2G4P. The data set can be described thus: mass photometry; higher molecular weight complexes; EMSA: DNA annealed in 200 mM Tris pH 7.4, 100 mM KCl, 1 mM EDTA; binding 10 min at 25 C, native PAGE; smTIRFM: 100 pM tethered DNA, 100-5000 pM protein, buffer. To be noted: protein: recombinant; tags: N-terminal FLAG-6xHis; two G4s, mixed topology.
For data set [18], the target named is T4, FJG4P. The data set is described as follows: EMSA; EMSA: DNA annealed in 200 mM Tris pH 7.4, 100 mM KCl, 1 mM EDTA; binding 10 min at 25 C, native PAGE; smTIRFM: 100 pM tethered DNA, 100-5000 pM protein, buffer. Particulars: protein: recombinant; tags: N-terminal FLAG-6xHis; label: 3' 6-FAM; intramolecular parallel G4.
The target in data set [19] is T7, 2FJG4P. The description is as above. To be noted: protein: recombinant; tags: N-terminal FLAG-6xHis; label: 3' 6-FAM; intramolecular parallel G4.
Where [20] appears, read: label: 5' fluorescein, intramolecular G4, mixed topology.
The mark [21] stands for this setting: label: 3' 6-FAM, intramolecular parallel G4.

As to “TGGCGACGGCAGCGAGGCTTAGGGTTAGGGTTAGGGTTTAGGGTTAGGGTTAGGGTTAGGGTTTAGGGTTAGGG / GCCTCGCTGCCGTCGCCA [2hTelG4 (smTIRFM tethering)]”, the Kd in data set [1] was 1.9 nM; in data set [2] it was 14.5 nM; in data set [3], 4.6 nM.
As for TTAGGGTTAGGGTTAGGGTTTAGGGTTAGGG (structured_DNA) [hTelG4 (EMSA)], the binding result with FJG4P [4] was “no binding”. The Kd in the data set with 2G4P [5] (setting [20]) stood at 86.2 ± 6 nM; with G4P [6] (setting [20]), 558 ± 157 nM.
As to TTAGGGTTAGGGTTAGGGTTTAGGGTTAGGG (structured_DNA) [hTelG4 (mass photometry)], in the data set with 2FJG4P [7], the binding result is “binds”.

B1: c-MYCG4 (smTIRFM tethering) (mixed)
DNA 1: TGGCGACGGCAGCGAGGCTGGGTGGGTAGGGTGGGTTT
DNA 2: GCCTCGCTGCCGTCGCCA
For B1, the Kd was determined as 0.22 ± 0.02 nM with G4P [8], 0.27 ± 0.03 nM with FJG4P [9], 0.2 ± 0.01 nM with 2FJG4P [10] and 0.16 ± 0.01 nM in the data set with 2G4P [11].

B2: hTelG4 (smTIRFM tethering) (mixed)
DNA 1: TGGCGACGGCAGCGAGGCTTAGGGTTAGGGTTAGGGTTTAGGGTTAGGG
DNA 2: GCCTCGCTGCCGTCGCCA
Consider B2, for which the Kd with G4P [12] was found to be 1.6 ± 0.1 nM; with FJG4P [13] it was 32.7 ± 4.8 nM; with 2FJG4P [14], 10.7 ± 1.7 nM; with 2G4P [15], 3.4 ± 0.3 nM.

B3: 2hTelG4 (mass photometry) (structured_DNA)
DNA: TTAGGGTTAGGGTTAGGGTTTAGGGTTAGGGTTAGGGTTAGGGTTAGGGTTTAGGGTTAGGG
On to B3, for which the binding result with 2FJG4P [16] and with 2G4P [17] was “binds” each time.
As to TGGGTGGGTAGGGTGGGTTT (structured_DNA) [c-MYCG4 (EMSA)], the Kd with FJG4P [18] worked out at 110 ± 58.9 nM; in the data set with 2G4P [5] (setting [21]), 27.7 ± 4 nM; with 2FJG4P [19], 130 ± 63 nM; with G4P [6] (setting [21]), 84.1 ± 8 nM.
